Assay results: PMC9482650, “Quantitative fragmentomics allow affinity mapping of interactomes” (Nature Communications, 2022)

Key:
Assay in all cases: holdup assay
Design in all cases: key: below the threshold = too weak to quantify, mostly under pKd 3.1 to 4
Conditions in all cases: plain residues with an end cap or a label only (N-terminal biotin on a linker: ado-ado)
CASK, O14936 = target: CASK, O14936
DLG3_1, Q92796 = target: T1, DLG3_1, Q92796
T1 sequence (Q92796 125-227, limits assumed, looked up): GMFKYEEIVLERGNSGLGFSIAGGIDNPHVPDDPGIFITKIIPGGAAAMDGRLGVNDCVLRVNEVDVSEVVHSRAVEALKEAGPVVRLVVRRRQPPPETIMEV

DLG3_2, Q92796 = target: T2, DLG3_2, Q92796
T2 sequence (Q92796 221-321, limits assumed, looked up): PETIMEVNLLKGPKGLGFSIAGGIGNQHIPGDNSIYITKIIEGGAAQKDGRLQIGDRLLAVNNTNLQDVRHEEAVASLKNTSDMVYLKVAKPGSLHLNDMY

DLG4_1, P78352 = target: DLG4_1, P78352
Sequence of DLG4_1, P78352 (P78352 62-152): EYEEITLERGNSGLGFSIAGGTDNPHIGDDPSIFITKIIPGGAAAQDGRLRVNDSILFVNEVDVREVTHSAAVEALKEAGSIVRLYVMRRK

FRMPD2_1, Q68DX3 = target: FRMPD2_1, Q68DX3
Sequence of FRMPD2_1, Q68DX3 (Q68DX3 770-861): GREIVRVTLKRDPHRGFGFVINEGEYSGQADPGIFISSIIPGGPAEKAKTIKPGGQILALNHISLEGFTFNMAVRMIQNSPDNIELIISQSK

FRMPD2_2, Q68DX3 = target: FRMPD2_2, Q68DX3
Sequence of FRMPD2_2, Q68DX3 (Q68DX3 944-1038): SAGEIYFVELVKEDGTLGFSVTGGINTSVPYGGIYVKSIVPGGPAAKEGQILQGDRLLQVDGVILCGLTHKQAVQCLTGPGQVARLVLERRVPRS

FRMPD2_3, Q68DX3 = target: FRMPD2_3, Q68DX3
Sequence of FRMPD2_3, Q68DX3 (Q68DX3 1073-1166): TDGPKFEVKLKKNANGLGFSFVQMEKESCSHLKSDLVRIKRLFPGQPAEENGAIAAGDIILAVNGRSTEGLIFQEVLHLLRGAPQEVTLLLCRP

GORASP1, Q9BQQ3 = target: GORASP1, Q9BQQ3
Sequence of GORASP1, Q9BQQ3 (Q9BQQ3 1-208): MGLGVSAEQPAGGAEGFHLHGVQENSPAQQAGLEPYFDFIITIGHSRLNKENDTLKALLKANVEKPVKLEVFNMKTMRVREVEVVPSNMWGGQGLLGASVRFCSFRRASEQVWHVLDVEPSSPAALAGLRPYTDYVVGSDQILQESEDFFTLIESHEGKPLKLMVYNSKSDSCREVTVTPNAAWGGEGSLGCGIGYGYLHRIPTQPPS

GORASP2, Q9H8Y8 = target: GORASP2, Q9H8Y8
GRID2IP_1, A4D2P6 = target: GRID2IP_1, A4D2P6
Sequence of GRID2IP_1, A4D2P6 (A4D2P6 1-87): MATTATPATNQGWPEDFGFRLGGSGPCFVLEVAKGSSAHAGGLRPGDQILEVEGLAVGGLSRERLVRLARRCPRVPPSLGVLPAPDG

GRIP1_7, Q9Y3R0 = target: T3, GRIP1_7, Q9Y3R0
T3 sequence (Q9Y3R0 999-1096, limits assumed, looked up): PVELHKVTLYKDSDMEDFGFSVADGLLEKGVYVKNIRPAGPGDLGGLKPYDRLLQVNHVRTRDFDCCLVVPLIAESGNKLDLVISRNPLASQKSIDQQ

HTRA3, P83110 = target: T4, HTRA3, P83110
T4 sequence (P83110 354-453, limits assumed, looked up): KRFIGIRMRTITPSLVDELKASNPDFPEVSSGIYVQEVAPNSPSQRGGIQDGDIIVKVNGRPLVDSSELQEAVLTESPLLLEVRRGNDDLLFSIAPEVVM

Inadl_5, Q8NI35 = target: Inadl_5, Q8NI35
Sequence of Inadl_5, Q8NI35 (Q8NI35 673-780): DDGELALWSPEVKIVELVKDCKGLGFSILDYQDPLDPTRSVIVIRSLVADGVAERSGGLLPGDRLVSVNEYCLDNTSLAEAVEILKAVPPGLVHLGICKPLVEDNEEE

Inadl_8, Q8NI35 = target: Inadl_8, Q8NI35
Sequence of Inadl_8, Q8NI35 (Q8NI35 1425-1530): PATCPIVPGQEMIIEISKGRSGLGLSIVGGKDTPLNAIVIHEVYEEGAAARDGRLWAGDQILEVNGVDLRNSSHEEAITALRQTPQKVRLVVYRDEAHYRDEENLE

LAP2, Q96RT1 = target: LAP2, Q96RT1
Sequence of LAP2, Q96RT1 (Q96RT1 other isoform, or with tags, fused parts or gaps): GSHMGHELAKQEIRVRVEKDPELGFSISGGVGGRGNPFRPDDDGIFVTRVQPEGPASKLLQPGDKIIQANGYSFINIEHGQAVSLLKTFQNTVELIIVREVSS

LIN7A, O14910 = target: T5, LIN7A, O14910
T5 sequence (O14910 103-200, limits assumed, looked up): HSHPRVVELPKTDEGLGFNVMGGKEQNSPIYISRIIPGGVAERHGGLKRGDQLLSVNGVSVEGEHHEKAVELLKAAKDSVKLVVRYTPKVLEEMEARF

MAGI1_1, Q96QZ7 = target: MAGI1_1, Q96QZ7
Sequence of MAGI1_1, Q96QZ7 (Q96QZ7 1-106): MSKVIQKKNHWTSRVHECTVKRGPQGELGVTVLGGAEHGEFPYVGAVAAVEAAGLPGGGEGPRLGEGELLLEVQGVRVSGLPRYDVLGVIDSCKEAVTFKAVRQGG

MAGI2_6, Q86UL8 = target: MAGI2_6, Q86UL8
Sequence of MAGI2_6, Q86UL8 (Q86UL8 1141-1229): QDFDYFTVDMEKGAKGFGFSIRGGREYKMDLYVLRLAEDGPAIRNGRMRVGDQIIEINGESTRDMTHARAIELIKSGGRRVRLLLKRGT

MAGI3_2, Q5TCQ9 = target: MAGI3_2, Q5TCQ9
Sequence of MAGI3_2, Q5TCQ9 (Q5TCQ9 398-503): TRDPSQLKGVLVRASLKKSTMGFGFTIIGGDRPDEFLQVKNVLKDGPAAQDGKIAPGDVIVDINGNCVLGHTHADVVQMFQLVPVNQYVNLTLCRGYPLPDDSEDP

MPDZ_5, O75970 = target: T6, MPDZ_5, O75970
T6 sequence (O75970 695-796, limits assumed, looked up): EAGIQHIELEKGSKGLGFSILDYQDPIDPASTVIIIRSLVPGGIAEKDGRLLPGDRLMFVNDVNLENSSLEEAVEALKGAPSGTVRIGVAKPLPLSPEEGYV

NHERF3_3, Q5T2W1 = target: T7, NHERF3_3, Q5T2W1
T7 sequence (Q5T2W1 238-333, limits assumed, looked up): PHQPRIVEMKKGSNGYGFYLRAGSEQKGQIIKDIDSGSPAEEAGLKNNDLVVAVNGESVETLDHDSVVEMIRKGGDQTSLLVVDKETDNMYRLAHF

NHERF3_4, Q5T2W1 = target: T8, NHERF3_4, Q5T2W1
T8 sequence (Q5T2W1 373-468, limits assumed, looked up): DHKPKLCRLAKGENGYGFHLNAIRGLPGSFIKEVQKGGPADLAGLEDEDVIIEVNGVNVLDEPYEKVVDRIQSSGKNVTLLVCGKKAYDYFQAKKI

PDZD2_2, O15018 = target: T9, PDZD2_2, O15018
T9 sequence (O15018 329-429, limits assumed, looked up): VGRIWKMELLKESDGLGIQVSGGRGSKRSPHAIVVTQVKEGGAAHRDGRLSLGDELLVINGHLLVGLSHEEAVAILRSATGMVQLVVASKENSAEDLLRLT

RHPN1, Q8TCX5 = target: T10, RHPN1, Q8TCX5
T10 sequence (Q8TCX5 508-602, limits assumed, looked up): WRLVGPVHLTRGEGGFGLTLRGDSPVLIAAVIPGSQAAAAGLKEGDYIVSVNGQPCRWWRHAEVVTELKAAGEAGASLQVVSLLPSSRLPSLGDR

SCRIB_2, Q14160 = target: SCRIB_2, Q14160
Sequence of SCRIB_2, Q14160 (Q14160 857-960): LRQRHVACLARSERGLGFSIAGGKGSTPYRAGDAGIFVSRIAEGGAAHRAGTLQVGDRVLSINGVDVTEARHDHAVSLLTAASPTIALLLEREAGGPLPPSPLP

SNTB1, Q13884 = target: T11, SNTB1, Q13884
T11 sequence (Q13884 107-205, limits assumed, looked up): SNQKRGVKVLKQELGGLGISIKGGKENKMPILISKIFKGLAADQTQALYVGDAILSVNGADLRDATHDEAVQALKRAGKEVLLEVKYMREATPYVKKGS

TJP1_2, Q07157 = target: TJP1_2, Q07157
Sequence of TJP1_2, Q07157 (Q07157 181-274): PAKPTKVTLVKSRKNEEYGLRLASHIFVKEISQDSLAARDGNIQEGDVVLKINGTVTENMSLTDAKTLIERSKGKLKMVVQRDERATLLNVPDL

Sequence of CASK, O14936 (O14936 487-570): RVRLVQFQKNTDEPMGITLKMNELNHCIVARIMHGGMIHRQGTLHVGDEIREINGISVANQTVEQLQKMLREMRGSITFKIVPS

| Binder | pKd (CASK, O14936) | pKd (DLG3_1, Q92796) | pKd (DLG3_2, Q92796) | pKd (DLG4_1, P78352) | pKd (FRMPD2_1, Q68DX3) | pKd (FRMPD2_2, Q68DX3) | pKd (FRMPD2_3, Q68DX3) | pKd (GORASP1, Q9BQQ3) | pKd (GORASP2, Q9H8Y8) | pKd (GRID2IP_1, A4D2P6) | pKd (GRIP1_7, Q9Y3R0) | pKd (HTRA3, P83110) | pKd (Inadl_5, Q8NI35) | pKd (Inadl_8, Q8NI35) | pKd (LAP2, Q96RT1) | pKd (LIN7A, O14910) | pKd (MAGI1_1, Q96QZ7) | pKd (MAGI2_6, Q86UL8) | pKd (MAGI3_2, Q5TCQ9) | pKd (MPDZ_5, O75970) | further results |
| --- | --- | --- | --- | --- | --- | --- | --- | --- | --- | --- | --- | --- | --- | --- | --- | --- | --- | --- | --- | --- | --- |
| AAVENKVTDL [PLXNB1, O43157] | below the threshold | below the threshold | 3.72 | 3.68 | below the threshold | below the threshold | below the threshold | below the threshold | 3.9 | below the threshold | below the threshold | below the threshold | below the threshold | below the threshold | 3.54 | below the threshold | below the threshold | 4.99 | below the threshold | below the threshold | pKd (NHERF3_3, Q5T2W1): below the threshold; pKd (NHERF3_4, Q5T2W1): 3.47; pKd (PDZD2_2, O15018): 4.65; pKd (RHPN1, Q8TCX5): 4.17; pKd (SCRIB_2, Q14160): 3.52; pKd (SNTB1, Q13884): 4.63; pKd (TJP1_2, Q07157): below the threshold |
| KPGKGSETVV [FZD4, Q9ULV1] | below the threshold | 4.28 | 4.77 | 4.85 | 3.54 | below the threshold | below the threshold | 3.78 | 4.24 | below the threshold | below the threshold | below the threshold | below the threshold | 3.49 | below the threshold | below the threshold | below the threshold | below the threshold | 5.64 | below the threshold | pKd (NHERF3_3, Q5T2W1): below the threshold; pKd (NHERF3_4, Q5T2W1): below the threshold; pKd (PDZD2_2, O15018): 3.76; pKd (RHPN1, Q8TCX5): 3.89; pKd (SCRIB_2, Q14160): 3.83; pKd (SNTB1, Q13884): 4.78; pKd (TJP1_2, Q07157): below the threshold |
